How the values were obtained:
[1] = target: T1, human TF on cells (MDA-MB-231, BxPC-3 and other tumor cells with high TF expression) (human, UniProt P13726 33-295); test: flow cytometry on MDA-MB-231 cells, antibody at 10 µg/mL
T1 construct: whole, on cells; Endogenous expression on tumor cell lines; also called cell surface TF

[2] = target: T1, human TF on cells (MDA-MB-231, BxPC-3 …); test: flow cytometry on MDA-MB-231 cells, antibody at 1 µg/mL

Row | Binder | MFI [1] [MFI] | MFI [2] [MFI]
1 | TF-mAb-H30 (antibody, V domains shown) VH: EVQLVQSGAEVKKPGESLKISCKGSGYSFTSYWMNWVRQMPGKGLEWMGMIYPADSETRLNQKFKDKATLSVDKSISTAYLQWSSLKASDTAMYYCAREDYGSSDYWGQGTTVTVSS VL: EIVLTQSPATLSLSPGERATLSCSASSSVSYMNWYQQKPGQAPRIWIYGISNLASGIPARFSGSGSGTDFTLTISSLEPEDFAVYYCQQKSSFPWTFGGGTKVEIK | 3240 | 2930
2 | TF-mAb-H40 (antibody, V domains shown) VH: EVQLVQSGAEVKKPGESLKISCKGSGYSFTSYWMNWVRQMPGKGLEWMGMIYPADSETRLNQKFKDKATLSVDKSISTAYLQWSSLKASDTAMYYCAREDYGSSDYWGQGTTVTVSS VL: DIQLTQSPSSLSASVGDRVTITCSASSSVSYMNWYQQKPGKSPKIWIYGISNLASGVPSRFSGSGSGTDFTLTISSLQPEDFATYYCQQKSSFPWTFGGGTKVEIK | 3310 | 3180
3 | TF-mAb-H32 (antibody, V domains shown) VH: QVQLVQSGAEVKKPGASVKVSCKASGYSFISYWMNWVRQAPGQGLEWIGMIYPADSETRLNQKFKDRATLTVDKSTSTAYMELSSLRSEDTAVYYCAREDYGSSDYWGQGTTVTVSS VL: EIVLTQSPATLSLSPGERATLSCSASSSVSYMNWYQQKPGQAPRIWIYGISNLASGIPARFSGSGSGTDFTLTISSLEPEDFAVYYCQQKSSFPWTFGGGTKVEIK | 3010 | 2400
4 | TF-mAb-H45 (antibody, V domains shown) VH: EVQLVQSGAEVKKPGESLKISCKGSGYSFTSYWMNWVRQMPGKGLEWMGMIYPADSETRLNQKFKDKATLSVDKSISTAYLQWSSLKASDTAMYYCAREDYGSSDYWGQGTTVTVSS VL: EIVLTQSPDFQSVTPKEKVTITCSASSSVSYMNWYQQKPDQSPKIWIYGISNLASGVPSRFSGSGSGTDFTLTINSLEAEDAATYYCQQKSSFPWTFGGGTKVEIK | 3480 | 3100
5 | TF-mAb-H29 (antibody, V domains shown) VH: EVQLVQSGAEVKKPGESLKISCKGSGYSFTSYWMNWVRQMPGKGLEWMGMIYPADSETRLNQKFKDQATLSVDKSISTAYLQWSSLKASDTAMYYCAREDYGSSDYWGQGTTVTVSS VL: EIVLTQSPATLSLSPGERATLSCSASSSVSYMNWYQQKPGQAPRIWIYGISNLASGIPARFSGSGSGTDFTLTISSLEPEDFAVYYCQQKSSFPWTFGGGTKVEIK | 3580 | 2960
6 | TF-mAb-H34 (antibody, V domains shown) VH: EVQLVQSGAEVKKPGESLKISCKGSGYSFTSYWMNWVRQMPGKGLEWMGMIYPADSETRLNQKFKDQATLSVDKSISTAYLQWSSLKASDTAMYYCAREDYGSSDYWGQGTTVTVSS VL: EIVLTQSPATLSLSPGERATLSCSASSSVSYMNWYQQKPGQSPRIWIYGISNLASGVPARFSGSGSGTDFTLTISSLEPEDFAVYYCQQKSSFPWTFGGGTKVEIK | 3270 | 2460
7 | TF-mAb-H33 (antibody, V domains shown) VH: QVQLVQSGSELKKPGASVKVSCKASGYSFISYWMNWVRQAPGQGLEWIGMIYPADSETRLNQKFKDRAVLSVDKSVSTAYLQICSLKAEDTAVYYCAREDYGSSDYWGQGTTVTVSS VL: EIVLTQSPATLSLSPGERATLSCSASSSVSYMNWYQQKPGQAPRIWIYGISNLASGIPARFSGSGSGTDFTLTISSLEPEDFAVYYCQQKSSFPWTFGGGTKVEIK | 2840 | 2420
8 | TF-mAb-H31 (antibody, V domains shown) VH: EVQLVQSGAEVKKPGESLKISCKGSGYSFTSYWMNWVKQMPGKGLEWMGMIYPADSETRLNQKFKDKATLSVDKSISTAYLQWSSLKASDTAMYYCAREDYGSSDYWGQGTTVTVSS VL: EIVLTQSPATLSLSPGERATLSCSASSSVSYMNWYQQKPGQAPRIWIYGISNLASGIPARFSGSGSGTDFTLTISSLEPEDFAVYYCQQKSSFPWTFGGGTKVEIK | 3470 | 3080
9 | TF-mAb-H42 (antibody, V domains shown) VH: QVQLVQSGAEVKKPGASVKVSCKASGYSFISYWMNWVRQAPGQGLEWIGMIYPADSETRLNQKFKDRATLTVDKSTSTAYMELSSLRSEDTAVYYCAREDYGSSDYWGQGTTVTVSS VL: DIQLTQSPSSLSASVGDRVTITCSASSSVSYMNWYQQKPGKSPKIWIYGISNLASGVPSRFSGSGSGTDFTLTISSLQPEDFATYYCQQKSSFPWTFGGGTKVEIK | 3350 | 2970
10 | TF-mAb-H47 (antibody, V domains shown) VH: QVQLVQSGAEVKKPGASVKVSCKASGYSFISYWMNWVRQAPGQGLEWIGMIYPADSETRLNQKFKDRATLTVDKSTSTAYMELSSLRSEDTAVYYCAREDYGSSDYWGQGTTVTVSS VL: EIVLTQSPDFQSVTPKEKVTITCSASSSVSYMNWYQQKPDQSPKIWIYGISNLASGVPSRFSGSGSGTDFTLTINSLEAEDAATYYCQQKSSFPWTFGGGTKVEIK | 3150 | 3000
11 | TF-mAb-Ch (antibody, V domains shown, Variable regions of TF-mAb-SC1 cloned onto human IgG1 heavy chain constant region and human kappa constant region; also called human-mouse chimeric antibody) VH: QVQLQQPGAELVRPGASVKLSCKASGYSFISYWMNWVKQRPGQGLEWIGMIYPADSETRLNQKFKDKATLTVDKSSSTAYMQLSSPTSEDSAVYYCAREDYGSSDYWGQGTTLTVSS VL: EILLTQSPAIIAASPGEKVTITCSASSSVSYMNWYLQKPGSSPKIWIYGISNLASGVPARFSGSGSGTSFSFTINSMETEDVATYYCQQKSSFPWTFGGGTKLEIK | 3540 | 3370

Now from value to binder:

Row | MFI [1] [MFI] | MFI [2] [MFI] | Binder
12 | 3150 | 2870 | TF-mAb-H38 (antibody, V domains shown) VH: QVQLVQSGSELKKPGASVKVSCKASGYSFISYWMNWVRQAPGQGLEWIGMIYPADSETRLNQKFKDRAVLSVDKSVSTAYLQICSLKAEDTAVYYCAREDYGSSDYWGQGTTVTVSS VL: EIVLTQSPATLSLSPGERATLSCSASSSVSYMNWYQQKPGQSPRIWIYGISNLASGVPARFSGSGSGTDFTLTISSLEPEDFAVYYCQQKSSFPWTFGGGTKVEIK
13 | 3020 | 2930 | TF-mAb-H35 (antibody, V domains shown) VH: EVQLVQSGAEVKKPGESLKISCKGSGYSFTSYWMNWVRQMPGKGLEWMGMIYPADSETRLNQKFKDKATLSVDKSISTAYLQWSSLKASDTAMYYCAREDYGSSDYWGQGTTVTVSS VL: EIVLTQSPATLSLSPGERATLSCSASSSVSYMNWYQQKPGQSPRIWIYGISNLASGVPARFSGSGSGTDFTLTISSLEPEDFAVYYCQQKSSFPWTFGGGTKVEIK
14 | 3090 | 3040 | TF-mAb-H36 (antibody, V domains shown) VH: EVQLVQSGAEVKKPGESLKISCKGSGYSFTSYWMNWVKQMPGKGLEWMGMIYPADSETRLNQKFKDKATLSVDKSISTAYLQWSSLKASDTAMYYCAREDYGSSDYWGQGTTVTVSS VL: EIVLTQSPATLSLSPGERATLSCSASSSVSYMNWYQQKPGQSPRIWIYGISNLASGVPARFSGSGSGTDFTLTISSLEPEDFAVYYCQQKSSFPWTFGGGTKVEIK
15 | 3430 | 3200 | TF-mAb-H44 (antibody, V domains shown) VH: EVQLVQSGAEVKKPGESLKISCKGSGYSFTSYWMNWVRQMPGKGLEWMGMIYPADSETRLNQKFKDQATLSVDKSISTAYLQWSSLKASDTAMYYCAREDYGSSDYWGQGTTVTVSS VL: EIVLTQSPDFQSVTPKEKVTITCSASSSVSYMNWYQQKPDQSPKIWIYGISNLASGVPSRFSGSGSGTDFTLTINSLEAEDAATYYCQQKSSFPWTFGGGTKVEIK
16 | 3410 | 3120 | TF-mAb-H46 (antibody, V domains shown) VH: EVQLVQSGAEVKKPGESLKISCKGSGYSFTSYWMNWVKQMPGKGLEWMGMIYPADSETRLNQKFKDKATLSVDKSISTAYLQWSSLKASDTAMYYCAREDYGSSDYWGQGTTVTVSS VL: EIVLTQSPDFQSVTPKEKVTITCSASSSVSYMNWYQQKPDQSPKIWIYGISNLASGVPSRFSGSGSGTDFTLTINSLEAEDAATYYCQQKSSFPWTFGGGTKVEIK
17 | 3380 | 3180 | TF-mAb-H39 (antibody, V domains shown) VH: EVQLVQSGAEVKKPGESLKISCKGSGYSFTSYWMNWVRQMPGKGLEWMGMIYPADSETRLNQKFKDQATLSVDKSISTAYLQWSSLKASDTAMYYCAREDYGSSDYWGQGTTVTVSS VL: DIQLTQSPSSLSASVGDRVTITCSASSSVSYMNWYQQKPGKSPKIWIYGISNLASGVPSRFSGSGSGTDFTLTISSLQPEDFATYYCQQKSSFPWTFGGGTKVEIK
18 | 2990 | 2460 | TF-mAb-H37 (antibody, V domains shown) VH: QVQLVQSGAEVKKPGASVKVSCKASGYSFISYWMNWVRQAPGQGLEWIGMIYPADSETRLNQKFKDRATLTVDKSTSTAYMELSSLRSEDTAVYYCAREDYGSSDYWGQGTTVTVSS VL: EIVLTQSPATLSLSPGERATLSCSASSSVSYMNWYQQKPGQSPRIWIYGISNLASGVPARFSGSGSGTDFTLTISSLEPEDFAVYYCQQKSSFPWTFGGGTKVEIK
19 | 3610 | 3000 | TF-mAb-H41 (antibody, V domains shown) VH: EVQLVQSGAEVKKPGESLKISCKGSGYSFTSYWMNWVKQMPGKGLEWMGMIYPADSETRLNQKFKDKATLSVDKSISTAYLQWSSLKASDTAMYYCAREDYGSSDYWGQGTTVTVSS VL: DIQLTQSPSSLSASVGDRVTITCSASSSVSYMNWYQQKPGKSPKIWIYGISNLASGVPSRFSGSGSGTDFTLTISSLQPEDFATYYCQQKSSFPWTFGGGTKVEIK
20 | 3300 | 2820 | TF-mAb-H43 (antibody, V domains shown) VH: QVQLVQSGSELKKPGASVKVSCKASGYSFISYWMNWVRQAPGQGLEWIGMIYPADSETRLNQKFKDRAVLSVDKSVSTAYLQICSLKAEDTAVYYCAREDYGSSDYWGQGTTVTVSS VL: DIQLTQSPSSLSASVGDRVTITCSASSSVSYMNWYQQKPGKSPKIWIYGISNLASGVPSRFSGSGSGTDFTLTISSLQPEDFATYYCQQKSSFPWTFGGGTKVEIK
21 | 2900 | 2610 | TF-mAb-H48 (antibody, V domains shown) VH: QVQLVQSGSELKKPGASVKVSCKASGYSFISYWMNWVRQAPGQGLEWIGMIYPADSETRLNQKFKDRAVLSVDKSVSTAYLQICSLKAEDTAVYYCAREDYGSSDYWGQGTTVTVSS VL: EIVLTQSPDFQSVTPKEKVTITCSASSSVSYMNWYQQKPDQSPKIWIYGISNLASGVPSRFSGSGSGTDFTLTINSLEAEDAATYYCQQKSSFPWTFGGGTKVEIK
